Reference: paper PMC2574963

Target: Heat shock protein 90α (human) (UniProt P07900)
Experiment: pull-down

Substance: Recombinant human Hsp70 (from UniProt P0DMV8 1-641) (natural protein)
- percent eluted, Hsp70 alone without m3 (control beads' nonadsorbed = 100%): 18%
- percent nonadsorbed, Hsp70 alone without m3 (control beads' nonadsorbed = 100%): 70%
